These results are taken from patent US20240083945A1 (Bicycle, published 2024).

What is called Kd is the free concentration of one partner at which half of the binding sites on the other are occupied at equilibrium, for simple one-to-one binding. Low readings indicate tighter binding, high ones weaker binding.

To fix the notation:
B1: BCY20265 (peptide)
peptide: ACSTDVCKLTGIAIPCA
modifications: N-terminal acetyl (Ac); Ci, Cii and Ciii cysteines covalently bound to TATA scaffold

In the assay the target is T1, COVID-19 nucleocapsid protein (N-protein) (severe acute respiratory syndrome …, UniProt P0DTC9 1-419).
T1 construct: also called nucleocapsid protein (N-protein) of severe acute respiratory syndrome coronavirus 2 (SARS-CoV-2)
The assay can be described thus: bio-layer interferometry (BLI). (Biolayer interferometry detects binding as a change in optical thickness at a sensor tip.)
ACVHDVCALTGIHIPCA (Ci, Cii and Ciii cysteines covalently bound to TATA scaffold) [BCY19453] returned an equilibrium dissociation constant (Kd) of 4240 nM.

In the case of ACLEAGQRCQWGRTCA (Ci, Cii and Ciii cysteines covalently bound to TATA scaffold) [BCY17644], the Kd is 675 nM.

Turning to ACLEAGQRCQWSRTCA (Ci, Cii and Ciii cysteines covalently bound to TATA scaffold) [BCY17651], the Kd is 686 nM.

Take ACLPLGARCQWQRECA (Ci, Cii and Ciii cysteines covalently bound to TATA scaffold) [BCY17648]: the Kd stood at 1860 nM.

Molecule ACTNLDWAYCYIHNQCA (Ci, Cii and Ciii cysteines covalently bound to TATA scaffold) [BCY19570] gave a dissociation constant Kd of 978 nM.

ACRVTLDACWDTPCA (Ci, Cii and Ciii cysteines covalently bound to TATA scaffold) [BCY16579] came in with a dissociation constant (Kd) of 759 nM.

Molecule ACQVDVCALTGIQIPCA (Ci, Cii and Ciii cysteines covalently bound to TATA scaffold) [BCY19455] had a dissociation constant Kd of 14900 nM.

As to KSQRCMTDFCNNRYVVNRCA (Ci, Cii and Ciii cysteines covalently bound to TBMT scaffold) [BCY18993], the Kd came out at 23.8 nM.

ACLVDVCEITGVQIRCA (Ci, Cii and Ciii cysteines covalently bound to TATA scaffold) [BCY18171] returned a Kd of 5610 nM.

For ACLPLGARCQWGRTCA (Ci, Cii and Ciii cysteines covalently bound to TATA scaffold) [BCY16576], the Kd turned out to be 593 nM.

In turn, ACLPLGARCQWSRTCA (Ci, Cii and Ciii cysteines covalently bound to TATA scaffold) [BCY17647] yielded a Kd of 548 nM.

Turning to ACHVDVCLITGVNIPCA (Ci, Cii and Ciii cysteines covalently bound to TATA scaffold) [BCY19567], the Kd worked out at 2250 nM.

The molecule ACSRANNYCDWWKCA (Ci, Cii and Ciii cysteines covalently bound to TBCU scaffold) [BCY16578] came in with an equilibrium dissociation constant (Kd) of 22300 nM.

Take ACDDWMIGCRITYKCA (Ci, Cii and Ciii cysteines covalently bound to TATA scaffold) [BCY17642]: the affinity, expressed as Kd, was 3940 nM.

Consider KTEYCETDFCNNRYVVNRCA (Ci, Cii and Ciii cysteines covalently bound to TBMT scaffold) [BCY18988], for which the Kd was 29.1 nM.

The molecule ACLAPGQRCNWTRVCA (Ci, Cii and Ciii cysteines covalently bound to TATA scaffold) [BCY17652] gave an equilibrium dissociation constant (Kd) of 142 nM.

ACSVDVCAITGVHIPCA (Ci, Cii and Ciii cysteines covalently bound to TATA scaffold) [BCY19566] yielded a Kd of 3260 nM.

Molecule ACTVDVCLLTGLHIPCA (Ci, Cii and Ciii cysteines covalently bound to TATA scaffold) [BCY19454] displayed a Kd of 7110 nM.

For ACTVDVCELTGLHIPCA (Ci, Cii and Ciii cysteines covalently bound to TATA scaffold) [BCY19565], binding was characterised by a dissociation constant (Kd) of 840 nM.

ACSEEYMFCNNRYVVCA (Ci, Cii and Ciii cysteines covalently bound to TATA scaffold) [BCY16577] came in with a Kd of 934 nM.

For ACTVDVCAITGVQIPCA (Ci, Cii and Ciii cysteines covalently bound to TATA scaffold) [BCY19568], binding was characterised by a dissociation constant (Kd) of 1870 nM.

The molecule HSLICVTDFCNNRYVVNRCMHSQ (Ci, Cii and Ciii cysteines covalently bound to TBMT scaffold) [BCY18987] displayed a Kd of 9.7 nM.

Turning to ACLEAGQRCQWQRECA (Ci, Cii and Ciii cysteines covalently bound to TATA scaffold) [BCY17650], binding was put at a Kd of 1990 nM.

In turn, ACTNLQWAMCYITGNCA (Ci, Cii and Ciii cysteines covalently bound to TATA scaffold) [BCY18172] yielded an equilibrium dissociation constant (Kd) of 2740 nM.

Take ACTNLEWAYCYIHNECA (Ci, Cii and Ciii cysteines covalently bound to TATA scaffold) [BCY19571]: the dissociation constant Kd is 958 nM.

With NQLPCLTDFCNNRYVVNRCA (Ci, Cii and Ciii cysteines covalently bound to TBMT scaffold) [BCY18992], the affinity, expressed as Kd, was 19.7 nM.

Take ACTNRNFCQNRYSVTCA (Ci, Cii and Ciii cysteines covalently bound to TBCU scaffold) [BCY16568]: the affinity, expressed as Kd, was 8160 nM.

Turning to ACTHDVCVLTGISIPCA (Ci, Cii and Ciii cysteines covalently bound to TATA scaffold) [BCY19564], binding was characterised by a dissociation constant (Kd) of 2000 nM.

Take LSQPCLTDFCNNRYVVNRCA (Ci, Cii and Ciii cysteines covalently bound to TBMT scaffold) [BCY18991]: the Kd amounted to 10.6 nM.

Take ACTNLEWADCYINHNCA (Ci, Cii and Ciii cysteines covalently bound to TATA scaffold) [BCY19572]: the affinity, expressed as Kd, was 1000 nM.

Molecule ACTNLEWANCYINHNCA (Ci, Cii and Ciii cysteines covalently bound to TATA scaffold) [BCY19573] gave a dissociation constant (Kd) of 1190 nM.

On to ACSTDVCKLTGIAIPCA (Ci, Cii and Ciii cysteines covalently bound to TATA scaffold) [BCY18169], for which binding was put at a Kd of 1600 nM.

On to ACLAPGQRCQWQRECA (Ci, Cii and Ciii cysteines covalently bound to TATA scaffold) [BCY17653], for which binding was characterised by a dissociation constant (Kd) of 799 nM.

The molecule ACAWDEYYQVCLPCA (Ci, Cii and Ciii cysteines covalently bound to TATA scaffold) [BCY16580] displayed a Kd of 6680 nM.

For the molecule NQLPCLTDFCNNRYVVNQCQEQS (Ci, Cii and Ciii cysteines covalently bound to TBMT scaffold) [BCY18994], binding was put at a Kd of 6890 nM.

On to ACMHDVCVLTGVNIPCA (Ci, Cii and Ciii cysteines covalently bound to TATA scaffold) [BCY19563], for which binding was characterised by a dissociation constant (Kd) of 1510 nM.

On to ACENFQLGCRITYKCA (Ci, Cii and Ciii cysteines covalently bound to TATA scaffold) [BCY17643], for which the Kd amounted to 4230 nM.

Regarding ACLPLGARCNWTRVCA (Ci, Cii and Ciii cysteines covalently bound to TATA scaffold) [BCY17646], the equilibrium dissociation constant (Kd) is 198 nM.

Consider ACDKWQLGCRITYKCA (Ci, Cii and Ciii cysteines covalently bound to TATA scaffold) [BCY16575], for which the affinity, expressed as Kd, was 1020 nM.

For B1, binding was put at a Kd of 2.5 nM.

Take ACLEAGQRCNWTRVCA (Ci, Cii and Ciii cysteines covalently bound to TATA scaffold) [BCY17649]: the equilibrium dissociation constant (Kd) stood at 596 nM.

LARDCGTDFCNNRYVVNRCA (Ci, Cii and Ciii cysteines covalently bound to TBMT scaffold) [BCY18989] came in with a Kd of 26.5 nM.

ACTNLQWADCYINHVCA (Ci, Cii and Ciii cysteines covalently bound to TATA scaffold) [BCY19458] displayed a dissociation constant (Kd) of 2290 nM.

ACLAPGQRCQWGRTCA (Ci, Cii and Ciii cysteines covalently bound to TATA scaffold) [BCY17645] came in with a Kd of 227 nM.
